According to the supplement of paper PMC10567573:

B1: PPEF2 (parent)
chain: AFKAAALIQRWYRRYVARLEMRRR

Variants of: B1
Assay: protein stability index of a GFP-peptide fusion (GPS, HEK-293T) (PSI 1-6); higher = more stable
Settings: c terminus: a fixed tail appended
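Note: lentivirally expressed fusions sorted by FACS into six bins by GFP to DsRed ratio, PSI derived from sequencing read proportions per bin multiplied by bin number.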

Variant	protein stability index
AFKAAALIQREYRRYVARLEMRRR [W11E]	2.46
AFKAAALIQRQYRRYVARLEMRRR [W11Q]	2.57
AFKAAALIQRLYRRYVARLEMRRR [W11L]	3.79
AFKAAALIQRNYRRYVARLEMRRR [W11N]	4.17
AFKAAALIQRIYRRYVARLEMRRR [W11I]	2.81
AFKAAALIQRYYRRYVARLEMRRR [W11Y]	3.91
AFKAAALIQRMYRRYVARLEMRRR [W11M]	2.84
AFKAAALIQRHYRRYVARLEMRRR [W11H]	2.28
AFKAAALIQRKYRRYVARLEMRRR [W11K]	5.21
AFKAAALIQRFYRRYVARLEMRRR [W11F]	3.99
AFKAAALIQRAYRRYVARLEMRRR [W11A]	4.29
AFKAAALIQRDYRRYVARLEMRRR [W11D]	2.79
AFKAAALIQRSYRRYVARLEMRRR [W11S]	4.12
AFKAAALIKRWYRRYVARLEMRRR [Q9K]	3.59
AFKAAALIRRWYRRYVARLEMRRR [Q9R]	3.48
AFKAAALIDRWYRRYVARLEMRRR [Q9D]	1.86
AFKAAALINRWYRRYVARLEMRRR [Q9N]	2.1
AFKAAALISRWYRRYVARLEMRRR [Q9S]	2.54
AFKAAALIERWYRRYVARLEMRRR [Q9E]	1.59
AFKAAALIWRWYRRYVARLEMRRR [Q9W]	2.98
AFKAAALIYRWYRRYVARLEMRRR [Q9Y]	2.23
AFKAAALICRWYRRYVARLEMRRR [Q9C]	2.71
AFKAAALIIRWYRRYVARLEMRRR [Q9I]	2.27
AFKAAALIMRWYRRYVARLEMRRR [Q9M]	2.37

Variant	protein stability index
AFKAAALITRWYRRYVARLEMRRR [Q9T]	3.39
AFKAAALIHRWYRRYVARLEMRRR [Q9H]	2.16
AFKAAALIFRWYRRYVARLEMRRR [Q9F]	2.85
AFKAAALILRWYRRYVARLEMRRR [Q9L]	3.44
AFKAAALIARWYRRYVARLEMRRR [Q9A]	3.25
AFKAAALIVRWYRRYVARLEMRRR [Q9V]	2.99
AFKAAALIQRWYRYYVARLEMRRR [R14Y]	1.79
AFKAAALIQRWYRTYVARLEMRRR [R14T]	2.49
AFKAAALIQRWYRHYVARLEMRRR [R14H]	2.42
AFKAAALIQRWYRIYVARLEMRRR [R14I]	1.84
AFKAAALIQRWYRMYVARLEMRRR [R14M]	2.2
AFKAAALIQRWYRAYVARLEMRRR [R14A]	2.17
AFKAAALIQRWYRPYVARLEMRRR [R14P]	1.59
AFKAAALIQRWYRKYVARLEMRRR [R14K]	3
AFKAAALIQRWYRFYVARLEMRRR [R14F]	2.29
AFKAAALIQRWYRDYVARLEMRRR [R14D]	1.66
AFKAAALIQRWYRNYVARLEMRRR [R14N]	2.83
AFKAAALIQRWYRLYVARLEMRRR [R14L]	1.84
AFKAAALIQRWYRVYVARLEMRRR [R14V]	1.07
AFKAAALIQRWYREYVARLEMRRR [R14E]	2.32
AFKAAALIQRWYRQYVARLEMRRR [R14Q]	2.74
AFKAAALIQRWYRRYVATLEMRRR [R18T]	2.41
AFKAAALIQRWYRRYVACLEMRRR [R18C]	2.25
AFKAAALIQRWYRRYVAPLEMRRR [R18P]	2.09

Variant	protein stability index
AFKAAALIQRWYRRYVAILEMRRR [R18I]	2.06
AFKAAALIQRWYRRYVAALEMRRR [R18A]	2.12
AFKAAALIQRWYRRYVAELEMRRR [R18E]	1.96
AFKAAALIQRWYRRYVAGLEMRRR [R18G]	1.95
AFKAAALIQRWYRRYVANLEMRRR [R18N]	2.71
AFKAAALIQRWYRRYVADLEMRRR [R18D]	1.66
AFKAAALIQRWYRRYVAFLEMRRR [R18F]	3.27
AFKAAALIQRWYRRYVAKLEMRRR [R18K]	2.54
AFKAAALIQRWYRRYVAMLEMRRR [R18M]	1.45
AFKAAALIQRWYRRYVAWLEMRRR [R18W]	2.77
AFKAAALIQRWYRRYVAYLEMRRR [R18Y]	3.1
AFKAAALIQRWVRRYVARLEMRRR [Y12V]	2.07
AFKAAALIQRWARRYVARLEMRRR [Y12A]	2.35
AFKAAALIQRWGRRYVARLEMRRR [Y12G]	1.49
AFKAAALIQRWTRRYVARLEMRRR [Y12T]	2.17
AFKAAALIQRWERRYVARLEMRRR [Y12E]	3.14
AFKAAALIQRWFRRYVARLEMRRR [Y12F]	3.17
AFKAAALIQRWRRRYVARLEMRRR [Y12R]	1.15
AFKAAALIQRWKRRYVARLEMRRR [Y12K]	1.78
AFKAAALIQRWIRRYVARLEMRRR [Y12I]	2.53
AFKAAALIQRWCRRYVARLEMRRR [Y12C]	2.14
AFKAAALIQRWMRRYVARLEMRRR [Y12M]	2.95
AFKAAALIQRWNRRYVARLEMRRR [Y12N]	1.62
AFKAAALIQRWHRRYVARLEMRRR [Y12H]	2.29

Variant	protein stability index
AFKAAALIQRWPRRYVARLEMRRR [Y12P]	2.44
AFKAAALIQRWYRRDVARLEMRRR [Y15D]	1.87
AFKAAALIQRWYRRTVARLEMRRR [Y15T]	4.46
AFKAAALIQRWYRREVARLEMRRR [Y15E]	3.89
AFKAAALIQRWYRRCVARLEMRRR [Y15C]	4.6
AFKAAALIQRWYRRRVARLEMRRR [Y15R]	4.11
AFKAAALIQRWYRRVVARLEMRRR [Y15V]	4.4
AFKAAALIQRWYRRQVARLEMRRR [Y15Q]	4.44
AFKAAALIQRWYRRGVARLEMRRR [Y15G]	1.93
AFKAAALIQRWYRRHVARLEMRRR [Y15H]	4.56
AFKAAALIQRWYRRLVARLEMRRR [Y15L]	3.82
AFKAAALIQRWYRRFVARLEMRRR [Y15F]	3.39
AFKAAALIQRWYRRMVARLEMRRR [Y15M]	5.14
AFKAAALIQRWYRRNVARLEMRRR [Y15N]	5.1
AFKAAALIQRWYRRPVARLEMRRR [Y15P]	1.89
AFKAAALIQRWYRRWVARLEMRRR [Y15W]	3.61
AFKAAALIQRWYRRAVARLEMRRR [Y15A]	4.61
AFKAAATIQRWYRRYVARLEMRRR [L7T]	4.39
AFKAAAQIQRWYRRYVARLEMRRR [L7Q]	4.96
AFKAAANIQRWYRRYVARLEMRRR [L7N]	2.64
AFKAAASIQRWYRRYVARLEMRRR [L7S]	2.93
AFKAAARIQRWYRRYVARLEMRRR [L7R]	5.03
